From publication doi:10.1101/2021.09.10.459738 come the findings set out here.

This assay concerns the target heat-denatured ovalbumin (UniProt P01012). As to the kind of experiment: ELISA. For orientation: An ELISA detects its analyte on a solid surface through an enzyme-linked reagent.
UniProt P01012, sequence (P01012 whole entry): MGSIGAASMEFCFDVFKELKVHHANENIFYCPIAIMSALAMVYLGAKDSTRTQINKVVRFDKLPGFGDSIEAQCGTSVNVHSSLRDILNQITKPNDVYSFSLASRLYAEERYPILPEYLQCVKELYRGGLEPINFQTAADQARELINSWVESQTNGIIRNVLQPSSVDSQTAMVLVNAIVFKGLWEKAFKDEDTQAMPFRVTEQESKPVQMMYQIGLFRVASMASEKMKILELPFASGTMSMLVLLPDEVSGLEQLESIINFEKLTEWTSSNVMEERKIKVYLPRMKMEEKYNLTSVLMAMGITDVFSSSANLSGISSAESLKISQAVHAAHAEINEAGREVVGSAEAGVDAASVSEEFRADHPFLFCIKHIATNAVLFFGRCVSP

Regarding “human IRE1α-LD-Fc fusion protein (from UniProt O75460 19-443)”, the Kd stood at 300 µM.

The Kd is the free concentration of one partner at which half of the binding sites on the other are occupied at equilibrium, for simple one-to-one binding.
